The supplement of paper PMC10567573

B1: TEKT4 (parent)
chain: SEVEELNMSLTALREKLLEAEQSL

Variants of: B1
Test: protein stability index of a GFP-peptide fusion (GPS, HEK-293T) (PSI 1-6); higher = more stable
Conditions: c terminus: a fixed tail appended
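Note: lentivirally expressed fusions sorted by FACS into six bins by GFP to DsRed ratio, PSI derived from sequencing read proportions per bin multiplied by bin number.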

Protein stability index: each site, then its substitutions
E15: I 2.62 | P 3.76 | Q 2.52 | D 2.97 | A 2.2 | H 2.94 | T 2.44 | S 2.27 | W 1.59 | F 2.27 | V 2.3 | N 2.54 | M 2.18
R14: Y 2.46 | S 4.41 | Q 3.99 | M 2.02 | N 4.79 | L 2.05 | D 5.52 | I 2.83 | G 4.19 | V 2.07 | H 3.87 | P 5.3
E2: A 2.84 | G 2.31 | M 2.74 | T 2.41 | F 1.76 | S 2.34 | L 2.72 | D 3.06 | Y 1.68 | C 2.66 | N 2.55 | H 2.3 | I 2.42 | Q 2.69 | K 2.19 | R 3.06
S9: G 2.61 | A 3 | T 2.67 | K 2.82 | N 3.06 | E 2.95 | R 3.13 | W 2.85 | P 2.85 | D 3.57 | V 1.66 | Y 2.33 | H 3.28 | I 2.14 | M 2.4
Q22: S 3.44 | L 1.96 | H 2.5 | F 1.75 | K 3.36 | I 1.72 | A 2.81 | T 3.64 | M 1.91 | N 2.54 | V 2.23 | Y 1.94 | E 3.37 | D 2.48 | R 2.64 | W 1.89
M8: G 4.32 | T 3.25 | V 3.77 | A 2.9 | L 3.36 | F 3.02 | C 2.27 | R 2.12 | E 3.29 | S 2.81 | P 3.99
L10: C 3.15 | Y 2.93 | R 3.97 | W 2.68 | M 2.64 | F 3.23 | N 4.09 | D 4.03 | G 3.74 | I 1.9 | V 2.25 | S 3.64 | K 3.73 | Q 4.14 | T 3.29 | E 3.55
N7: E 2.56 | I 3.09 | T 2.63 | D 3.24 | Q 2.67 | Y 3.42 | F 1.89 | C 2.48 | R 3.92 | W 2.1 | P 3.42 | M 2.31 | H 2.43
A20: I 3.55 | K 4.9 | R 4.28 | P 4.76 | G 4.88 | C 4 | M 3.73 | N 4.52 | S 4.18 | T 4.26 | Q 4.32 | Y 3.88 | E 5.04 | F 3.79
L6: T 3.02 | R 2.87 | N 3.89 | W 2.95 | C 3.71 | M 3.47 | K 3.75 | A 3.81 | E 4.33 | V 3.58 | S 3.71 | P 3.99 | Y 2.6 | F 3 | G 3.95 | Q 3.51
S1: K 2.23 | I 2.37 | W 2.26 | R 2.19 | Y 2.31 | L 2.96 | F 2.31 | H 3.19 | E 3.28 | M 2.27 | G 3.25 | V 2.76 | D 3.64 | C 2.63 | Q 3.52
E5: V 2.64 | F 2.76 | Y 2.03 | W 1.79 | M 2.22 | R 2.35 | N 2.63 | C 2.31 | Q 2.72 | A 2.37 | I 1.95 | K 2.6 | L 2.43 | G 2.73
V3: E 3.98 | D 3.64 | A 3.61 | C 3.39 | L 3.51 | R 2.83 | P 3.47 | G 3.67 | H 3.29 | T 2.99 | N 2.57 | Y 2.95 | W 2.4 | I 3.16 | M 2.63 | K 2.45 | S 3.29
L13: I 4.14 | V 4.55 | S 4.8 | P 4.47 | E 5.42 | R 4.83 | H 5.21 | K 4.76 | Q 4.47 | W 3.18 | D 5.55 | N 4.87 | T 5.4 | A 4.86 | F 4.49
E19: M 2.92 | T 3.6 | F 2.24 | Q 2.36 | C 3.04 | K 3.97 | P 4.07 | W 2.26 | V 3.66 | L 2.39 | I 2.31 | S 3.41 | N 3.71 | H 3.26 | R 2.78
K16: R 3.06 | H 2.83 | I 2.92 | A 3.42 | Q 2.83 | F 1.99 | D 4.25 | P 5.38 | Y 2.67 | W 3.27 | S 3.74 | T 2.83 | V 3.11
T11: C 2.82 | P 3.31 | Y 1.81 | R 3.1 | G 3.02 | H 2.5 | L 2.8 | M 2.51 | I 2.35 | S 2.92 | W 2.09 | F 1.76 | N 3.02
E4: H 2.06 | L 2.26 | W 1.68 | M 2.07 | P 2.73 | N 3.12 | C 2.29 | F 2.34 | D 2.63 | T 2.59 | V 2.58 | Y 1.99 | K 2.24 | Q 2.32 | A 1.86
A12: N 1.73 | R 2.54 | Q 2.29 | F 2.37 | G 2.56 | W 2.56 | D 3.48 | K 3.17 | V 3.06 | M 1.9 | H 2.76 | P 4.15
E21: D 4.83 | L 2.81 | G 3.51 | Y 2.77 | C 2.23 | F 2.62 | Q 3.44 | T 2.97 | P 2.45 | V 2.36 | K 3.42 | I 2.06 | N 3.34
L18: P 5.43 | T 4.54 | K 4.74 | R 3.67 | I 2.39 | G 4.45 | E 5.08 | Q 4.23 | H 3.84 | W 2.86 | M 2.71 | V 3.94
L17: I 4.28 | T 5.16 | S 4.9 | V 4.45 | E 5.46 | A 5.53 | W 3.41 | N 4.89 | P 5.42 | G 5.38 | F 3.69
L24: Y 3.82 | N 4.97 | I 3.1 | D 5.19 | K 5.14 | A 4.18 | G 5.01 | M 4.18 | C 3.82 | R 4.23
S23: I 2.74 | E 3.93 | D 3.36 | F 2.48 | T 2.77 | C 2.39 | P 4.45 | R 2.9 | Q 2.72 | A 2.47 | W 2.75 | Y 2.33 | G 3.66 | K 3.17 | V 2.87 | H 2.31 | N 3.21
